In publication PMC8650758 (Cell reports, 2021):
Residue numbers refer to the chain shown, from its start. In names and notes the source's numbering stands.

Columns and labels:
DWnt-5(455-1004) [1] = molecular target: T1, DWnt-5(455-1004) (D. melanogaster, UniProt P28466 455-1004, glycosylated at N484/485, N724 and N952; S868 unmodified (not lipid modified)); assay: SPR
T1 sequence (looked up): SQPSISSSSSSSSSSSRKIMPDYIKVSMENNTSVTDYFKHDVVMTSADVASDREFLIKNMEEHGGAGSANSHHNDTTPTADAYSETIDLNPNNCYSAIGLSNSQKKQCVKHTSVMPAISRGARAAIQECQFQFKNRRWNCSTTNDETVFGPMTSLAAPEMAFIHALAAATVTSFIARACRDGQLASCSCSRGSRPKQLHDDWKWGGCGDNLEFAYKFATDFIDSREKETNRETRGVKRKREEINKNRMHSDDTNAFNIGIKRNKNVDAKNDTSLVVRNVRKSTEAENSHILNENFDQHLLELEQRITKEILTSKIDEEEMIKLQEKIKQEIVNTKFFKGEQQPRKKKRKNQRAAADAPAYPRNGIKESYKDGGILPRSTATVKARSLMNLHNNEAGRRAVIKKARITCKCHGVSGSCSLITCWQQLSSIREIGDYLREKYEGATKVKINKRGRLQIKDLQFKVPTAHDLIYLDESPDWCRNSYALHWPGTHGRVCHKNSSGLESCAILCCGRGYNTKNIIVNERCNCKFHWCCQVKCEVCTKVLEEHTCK

DWnt-5(455-1004) [2] = molecular target: T1, DWnt-5(455-1004); assay: pull-down

B1: sDnt (Dnt ECR) (domain or fragment, D. melanogaster)
chain: SEVAAHLNVFLNPVEVMRLLGVSAEVYYVREGHINNYALNFIVPVPANVKDISFTWQSLAGRGLPYSINVVSSDQEVLPRPAINVSHSGEIPTTIQTWSIALKCSGLKAAEVDVTVSLEVVLNRSLNNVTHLVFRRKKICLMNDSAEDLSEDVDDPQLLETVMLPPTGRPLESRGPFEGKPIPNPLLGLDSTRTG
With B1 the “fold weaker binding than the Drl and Drl-2 ECRs” value (DWnt-5(455-1004) [1]) was about 10 fold.

B2: sDrl-2 (Drl-2 ECR) (domain or fragment, D. melanogaster)
chain: GYLNIFISHHEVMKLMGLEADLFYVHEGAINTYAMHFTVPVPADVHELEFSWQSLIAYPLPYAISIEYNNDQEALGTPTLSIPHKGLVPQEIESFLVYLPCTGNASLQMPVNVNMVVRAPPRFNDTRLHFKRNKICAKGISPEPNQSPAPAHAPSQGPARPLESRGPFEGKPIPNPLLGLDSTRTG
B2 was tested, and the Kd (DWnt-5(455-1004) [1]) was 230 nM.

B3: sDrl183 (Drl WIF domain) (domain or fragment, D. melanogaster, UniProt Q27324 21-183, looked up)
chain: HLNIFLNLHEVLRLIGVSAELYYVREGAINDYALNFAVPVPANISDVTFTWQSLVDHPLPYSINIATSDTEVLPRPILNISRIGDVPVEPQTWGIALKCSGTRNAEVTVTINVEVILDRATNNNTNLIFKRKKICLREEQDSAHEEYDDDDLDLLQTARKGHG
B3: binds (DWnt-5(455-1004) [2]).

B4: sDrl242 E40K (domain or fragment, D. melanogaster, UniProt Q27324 21-242, looked up)
chain: HLNIFLNLHEVLRLIGVSAKLYYVREGAINDYALNFAVPVPANISDVTFTWQSLVDHPLPYSINIATSDTEVLPRPILNISRIGDVPVEPQTWGIALKCSGTRNAEVTVTINVEVILDRATNNNTNLIFKRKKICLREEQDSAHEEYDDDDLDLLQTARKGHGGDIHYVDRNDEHVVANGHQAPEKQRPVVTESPVGRGNSGGSKRDFDPMLRENLVPPASG
B4 was tested, and the “fold reduction of affinity against wild-type sDrl242” value (DWnt-5(455-1004) [1]) was about 10 fold.

B5: sDrl242 (Drl ECR) (domain or fragment, D. melanogaster, UniProt Q27324 21-242, looked up)
chain: B4 chain with K20E
Binder B5 has a Kd (DWnt-5(455-1004) [1]) of 720 nM.

B6: sDrl242 E126K (domain or fragment, D. melanogaster, UniProt Q27324 21-242, looked up)
chain: B4 chain with K20E, E106K
B6: binds (DWnt-5(455-1004) [1]).

B7: sDrl242 I154E (domain or fragment, D. melanogaster, UniProt Q27324 21-242, looked up)
chain: B4 chain with K20E, I134E
B7: binds (DWnt-5(455-1004) [1]).
